The results in this text go back to paper PMC12599289, “Kinetic and homology model analysis of diaminopimelate decarboxylase from Cyanothece sp. ATCC 51142: unveiling a key enzyme in lysine biosynthesis” (Bioscience Reports, 2025).

Substrate in this data set: NC(CCCC(N)C(=O)O)C(=O)O
The experiment in a line: purified protein. As to conditions: 0.1 mM PLP, 20 mM Tris-HCl pH 8.0, methods say room temperature, abstract says 30°C, DAP 0.5-15 mM. Type of data set: biochemical, Crocosphaera subtropica.

B1: CsDAPDC (Crocosphaera subtropica ATCC 51142) (protein)
chain: MIATPTKTPHTGQDYLKIKINATDSTKRSPNQSLLPLTANINAHDHLEIGGCDLQTLVEQFGSPLYILDEMTLRTACRQYRDNFQTYYKGESQVIYASKAWSCLAVVGVIARENLGFDVVSGGELYTTQKALTQLGYSCQEIAKKIYFHGNNKSEAELKEAIKVGCTIIVDNWLELQTLAQLGNDTPNLTIPILIRLTPGIECHTHEYIRTGHLDSKFGFDPNQLEAVFTYISQQTSLDCRGLHAHIGSQIFERQPHQDLAGVLVEWLKIGREYGLNLSELNIGGGLGICYTEEDDPPSIEEWVKAVSEAVMKACQRCEIDLPKLIAEPGRSLIGSACVTAYTVGSRKEIPELRTYIAVDGGMSDNPRPITYQSLYRVALANRMSAEISETVTIAGKHCESGDIVIKDAQLPQTHPGDILVIMGTGAYNYSMASNYNRLPRPAAVMVNQGEANLIVRRETYDDLIRQDCLPQRLLP
notes: tag removal not mentioned; dimer only from homology model
What is called Km is the concentration of substrate that gives half-maximal velocity. The term kcat denotes the number of substrate molecules converted per active site and unit of time at saturation. On to B1, for which the Km amounted to 1.20 ± 0.17 mM and the kcat turned out to be 1.68 s⁻¹.
